Source: the supplement of paper PMC9170038

System: MS2 coat protein
Assay: apparent KD of MS2 coat protein; higher = weaker reporter binding
Conditions: Eterna round: R107
In short: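 Normalised binding curves from single clusters were fitted, and the median fit for each design is given as apparent KD. The clusters held designed RNA switches transcribed on-chip from Illumina sequencing clusters. These were titrated with SNAP-549-labelled MS2 coat protein (twofold steps from 0.7 or 1.5 nM to 3 µM, 0.8–1.5 h to 10–20 min per step) in 100 mM Tris-HCl pH 7.5, 80 mM KCl, 4 mM MgCl2, without or with constant ligand.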

[1] = input ligand: theophylline 20 uM
[2] = input ligand: tryptophan 2.4 mM
[3] = input ligand: theophylline 2 mM

Sequence	apparent KD of MS2 coat protein (input ligand: arginine 13.2 mM)	apparent KD of MS2 coat protein [1]	apparent KD of MS2 coat protein [2]	apparent KD of MS2 coat protein (input ligand: none)	apparent KD of MS2 coat protein [3]
AUAAGUAAUGUUACGUGUUUUAUUACAGAUACCAGACUAUACGUUGUCCCUUGGCAGCUGAAUUACAUGAGGAUCACCCAUGUUG [JR_ExcTheophyA_Sub004]	15.9 nM	18.4 nM	15.1 nM	–	–
CAUAUAUAUUGAAGGAGCGACAUGAGGAUCACCCAUGUCUACCACGUCGAAAGACGCUCAUGUCAGGUAGGUCGCAAUAUAUAUG [Astros-Eli-mod5]	41.5 nM	86.2 nM	106 nM	124 nM	144 nM
UCGUAGGUAGGAAGGAGCGCAUACUUCACAUGAGGAUCACCCAUGUCGAGACGUGAGUCAGUGCAGGUAGGUCGCCUAGUUAUGA [Same State - Arginine B (Freestyle 24)]	19.6 nM	36.2 nM	29.2 nM	41.1 nM	40.2 nM
UCGUGUAUAUCGGAUACCAGUGAAAUCGAUACAUGAGGAUCACCCAUGUGAGUUGAUGUACACCCUUGGCAGCUGUAUAUAUCUA [snbullin]	15 nM	18.1 nM	15.3 nM	–	–
GCGGUACGUACUGAUACCAGAGACAUGAGGAUCACCCAUGUCCCAUGGUCAUGCCUCAGACUCCCUUGGCAGCAGGAUAAGUGCG [Exclusion Theophylline B GF3]	14.3 nM	17.1 nM	12.8 nM	13.9 nM	40.4 nM
GAAGAGAGGAUACCGUUUGUAUACAACGAUACCAGUGGUAUGUAUCACCCUUGGCAGCGUGAGACAUGAGGAUCACCCAUGUGGC [theeternabot_exclusion_MS2_Theo_A_46]	14.3 nM	26.1 nM	18.4 nM	–	–
GUCCUCGUGUCCGGUUUAGCGCAAAGCGCACGAGGACCGGUACGGCCGCCACUCGAAACAUGAGGAUCACCCAUGUGAAGAAUAA [Design 1]	14.4 nM	21.8 nM	17.8 nM	14.6 nM	15.8 nM
AACAUACAGUUUUAGGUGGAUAUAAGGCGGCGAGGACCGGUACGGCCGCCACUCGCGUACAUGAGGAUCACCCAUGUCUGAAGCU [Same State - Tryptophan A (Freestyle 7)]	24.4 nM	59.2 nM	–	–	86.9 nM
UGUGUUGUCCGAAGGAGCGGGACCUAAUAGUGGUAACAUGAGGAUCACCCAUGUAUUUCGUCCCAGGUAGGUCGCGGACAGUGUA [ArgiB-ms2@36]	19 nM	32.2 nM	21.7 nM	20.7 nM	25.1 nM
AUGCAGAACACGGCCGCCACUCAUUGUAGACAUGAGGAUCACCCAUGUAAUAGGGAUAUUUUAUUGAGGACCGGGUGUAAUGCAA [JR_SSTryptoB_Sub013]	34.5 nM	77.6 nM	–	–	59.5 nM
UCUUUCUUUGUAGAUACCAGCAUGUUAAGUUUCUUUUGACAUGAGGAUCACCCAUGUACAUGCCCUUGGCAGCUACAUUUUCUUU [SSThB NP+V+V2 Same Structure]	15.6 nM	16.3 nM	15.4 nM	–	–
GCUGCCGUCGGUGAAAACUCCCAUGCAGAUACCAGCGCAUUCCGCCGCCCUUGGCAGCUGCAUACAUGAGGAUCACCCAUGUGUU [theeternabot_exclusion_MS2_Theo_A_48]	41.4 nM	161 nM	77.3 nM	–	–
ACAUGAGGAUCACCCAUGUGAAGGCACGAUACCAGCUGAUCCCGUGGCCCUUGGCAGCGUCACGUUUGGUCCCGCGGAUGAGACG [crcmullin]	20.8 nM	21.5 nM	13.8 nM	14.2 nM	17 nM
UGAUACACGGGAAGGAGCGACAGGGAUAAGUCCGCACGGGCCGCACAUGAGGAUCACCCAUGUCAGGUAGGUCGCCCGUGGCGUG [Erxemarima]	13 nM	19.6 nM	12.9 nM	13.5 nM	16 nM
UAAUACCAGGUCAACGUACCAGGUGAUCAACGAGGACCGGUACGGCCGCCACUCGAAACAUGAGGAUCACCCAUGUAAGACCUGG [|T'-M'-Trp-Ms2|_Design 2_ML2]	20.9 nM	185 nM	61.3 nM	134 nM	141 nM
CCGUCACAUGAGGAUCACCCAUGUGCGGAAGGAGCGGACGAAAGUCCAGGUAGGUCGCCGUAUAGCCAAUGACCAGCAGUGUCGG [XARG-A 21]	12.1 nM	15.4 nM	14.4 nM	12.6 nM	14.8 nM
ACAUGAGGAUCACCCAUGUUCCUCUUUGAUACCAGUGAGUUGUUUCGCCCUUGGCAGCGAGUUUUUUUUUUUUUGUUUUGUUUGG [6.R]	173 nM	351 nM	264 nM	–	–
AAAACAUGAGGAUCACCACAUGACAUGAGGCGAGGACCGGUACGGCCGCCACUCGACAUACAUGAGGAUCACCCAUGUUUGUUGU [Exclusion Tryptophan A 4]	40.7 nM	274 nM	–	–	460 nM
GCAUCCUAGUCGGCCGCCACUGCAUGUAGGCAGUGCUGCUACAAACAUGAGGAUCACCCAUGUAGCAGGACCGGGACUAGGAUGC [(Trp1)-(MT2)''-(T1)'-(MT2)'-(Ms2)-(Trp2)_Design2]	13 nM	18.5 nM	–	–	15.6 nM
UACAUAUGCCGAAGGAGCGCGAGAUGCAAAGCAUCAAUCCUUACAUGAGGAUCACCCAUGUCGCAGGUAGGUCGCGGCAUAUGUU [ArgBX 2]	26.8 nM	44.3 nM	36.1 nM	33.6 nM	44.7 nM
GAUCGACAAAACGUCUAGGAAAACUAGACGCGAGGACCGGUACGGCCGCCACUCGUCCUCACAUGAGGAUCACCCAUGUACGAUC [#SwitchBubble 2 #CuTurnoff]	30.3 nM	43.2 nM	–	–	46.3 nM
AGCCAUGGAAACAUGGCGGCGGCAUGAGCGCGAGGACCGGUACGGCCGCCACUCGGGCGACAUGAGGAUCACCCAUGUUCCUCAU [ETA NP+V+V2 #22 Same Structure]	145 nM	312 nM	422 nM	289 nM	451 nM
GAUAUAUAGGCGGCCGCCACUGAUUUUCAUAUAUAUAUAACAUGAGGAUCACCCAUGUAGAUAUACAGGACCGGGCCUAUAUAUU [aaaB]	15.5 nM	16 nM	–	–	16 nM
CCUCACAUGAGGAUCACCCAUGUCUUUACACGAGGACCGGUACGGCCGCCACUCGUUCACAAAACAACCAGAAGUGAUGCCUACA [theeternabot_sameState_MS2_Trp_A_14]	80.2 nM	183 nM	–	–	214 nM
AGCGACAUGCGUGAUACCAGCUACAUGAGGAUCACCCAUGUCAGCAGGGAACUGCUGUGUAGCCCUUGGCAGCACAGUGCAUGUC [Exclusion - Theophylline B (Freestyle 29)]	13 nM	12.3 nM	10.2 nM	10.8 nM	23.1 nM
GCACCAGGUACGGAUACCAGCUAUAGGUACAUGUCAGGACAUGAGGAUCACCCAUGUGGUAGCCCUUGGCAGCUGUACCUGGUGC [EThB NP+V+V2 #2]	18.5 nM	26.3 nM	19.1 nM	–	–
CCUCGACAUGAGGAUCACCCAUGUAGAGAUACCAGCCUGUGAGAUGGCCCUUGGCAGCUCAUAUAGGGUACAGGAGUCGUUUUGA [Qugetila]	23.5 nM	63.2 nM	23.9 nM	–	–
UGUACUAUGUGAAGGAGCGCCACAUGAGGAUCACCCAUGUAAACAUGAGGAUCACCCAUGUGGCAGGUAGGUCGCACAUAGUACU [ArgBS - Double MS2 - I don't expect this to work]	49.7 nM	203 nM	78.7 nM	108 nM	227 nM
CCUCAUGUGUAUCACCACAUGAGUGGUGAUACCAGCAUCGAAAGAUGCCCUUGGCAGCACCAACAUGAGGAUCACCCAUGUAAUA [(M)'-(T)'-(M)''-(T1)-(T2)-(M1)-(M2)_Design2]	60.3 nM	284 nM	287 nM	–	–
